According to US20140348836A1 (published 2014):
Residue numbers refer to the chain shown, from its start. Names and notes keep the numbering of the source.

B1: Antibody clone A4 (antibody, human IgG1, lambda, V domains shown)
VH: EVQLLESGGGLVQPGGSLRLSCAASGFTFSTYGMHWVRQAPGKGLEWLSYISGGSSYIFYADSVRGRFTISRDNSENALYLQMNSLRAEDTAVYYCARILRGGSGMDLWGQGTLVTVSS
VL: QSVLTQPPSASGTPGQRVTISCTGSTSNIGAGYKVYWYQQLPGTAPKLLIYGNINRPSGVPDRFSGSKSGTSASLAISGLRSEDEADYYCAAWDDSLSGLVFGGGTKLTVLG
notes: Tested as purified antibody; full chains are assembled here from VH/VL plus these; also called A4 ANTI-CD40 ANTIBODY
B2: Antibody B44 (antibody, V domains shown)
VH: B1 VH
VL: B1 VL with T26S, K34D
notes: Parent agonistic anti-CD40 antibody from the n-CoDeR library; Run alongside the IgG clones as 'B44 antibody' and detected with anti-human Ig on RAMOS cells; also called B44 antibody; original anti-CD40 antibody
B3: Antibody clone H11 (antibody, human IgG1, lambda, V domains shown)
VH: B1 VH
VL: B1 VL with T26S, K34N, D95G, S96G, S98L
notes: also called H11 ANTI-CD40 ANTIBODY
B4: Antibody clone A5 (antibody, human IgG1, lambda, V domains shown)
VH: B1 VH
VL: B1 VL with T26S, K34H, N53S, A73G, D95S, L97S
B5: Antibody clone F9 (antibody, human IgG1, lambda, V domains shown)
VH: B1 VH
VL: B1 VL with T26S, K34G, D95G, S96T, S98T, V101L
B6: Antibody clone F6 (antibody, human IgG1, lambda, V domains shown)
VH: B1 VH
VL: B1 VL with T26S, K34D, G52R, D95G, S98L
B7: Antibody clone B9 (antibody, human IgG1, lambda, V domains shown)
VH: B1 VH
VL: B1 VL with T26S, K34N, D95G, S96G, S98L
B8: Antibody clone C4 (antibody, human IgG1, lambda, V domains shown)
VH: B1 VH with S63T
VL: B1 VL
notes: Same VL changes as A4; VH carries S63T; also called C4 ANTI-CD40 ANTIBODY

Columns and labels:
[1] = target: T1, human CD40 on cells (human, UniProt P25942 21-277); assay: cell-based or functional assay
[2] = target: T2, CD40hfc (R&Dsystems, USA) (UniProt P25942 21-193); assay: SPR, physiological pH and 37 C
T2 construct: Bought reagent; also called immobilized CD40 receptor; target; not shown: Fc part ('hfc') of the bought fusion
Method: (§1) The affinity measures of purified antibodies by surface plasmon resonance using the Biacore 3000 instrument was performed according to manufacturer's protocols.
(§2) The CD40hfc (R&Dsystems, USA) was immobilized to the BIAcore sensorchip, CMS, using conventional amine coupling. The anti-CD40 antibodies of the invention, (serially diluted 1/3 from 1-0.012 nM) were analysed for binding in HBS-P (GE, BR-1003-68) at a flow rate of 30 μl/min at 37° C. and pH 7.3. The association was followed for 3 minutes and the dissociation for 10 minutes. Regeneration was performed twice using 50 mM NaOH for 30 seconds. The kinetic parameters and the affinity constants were calculated using BlAevaluation 4.1 software.

[3] = target: T2, CD40hfc (R&Dsystems, USA); assay: SPR (Biacore 3000), CD40hfc amine-coupled on chip, antibody as analyte, 37 C, acetate buffer pH 5.4
Method: as §1, §2
Alternatively, samples were incubated in Acetate buffer pH 5.4, 10 mM Acetate, 150 mM NaCl, 0.005% T20, at 37° C.

[4] = target: T1, human CD40 on cells; assay: cell-based or functional assay; remark: listed apart in the source
[5] = target: T1, human CD40 on cells; assay: cell-based or functional assay; remark: listed apart in the source
[6] = target: T1, human CD40 on cells; assay: flow cytometry (FACS) on RAMOS cells
Method: (§3) The human Burkitt's lymphoma cell line RAMOS was used for binding analysis (ECACC, Sigma Aldrich, USA). The unconjugated anti-CD40 antibodies of the invention were assayed for binding to RAMOS cells.
(§4) RAMOS cells, approximately 125,000 cells, were incubated with anti-CD40 antibody, serially diluted 1/3 from 30-0.0015 μg/ml, for 30 minutes at 4° C. The cells were washed twice with FACS buffer and the secondary antibody, anti-human Ig Rabbit F(ab′)2/FITC (DAKO, Glostrup, Denmark), was subsequently added to the cells for another 30 minutes at 4° C. The cells were washed and analysed on a FACScalibur instrument, according to the manufacturer's instructions (Becton Dickinson, USA) and then the mean fluorescent intensity (“MFI”) was determined.

[7] = target: T1, human CD40 on cells; assay: cell-based or functional assay; remark: listed apart in the source
[8] = target: T1, human CD40 on cells; assay: flow cytometry (FACS) on RAMOS cells, anti-human Ig F(ab')2-FITC detection, MFI
Method: as §3, §4

[9] = target: T2, CD40hfc (R&Dsystems, USA); assay: SPR (Biacore 3000), CD40hfc amine-coupled on chip, antibody as analyte, 37 C, pH 7.3
Method: as §1, §2

T2 sequence (P25942 21-193 limits assumed): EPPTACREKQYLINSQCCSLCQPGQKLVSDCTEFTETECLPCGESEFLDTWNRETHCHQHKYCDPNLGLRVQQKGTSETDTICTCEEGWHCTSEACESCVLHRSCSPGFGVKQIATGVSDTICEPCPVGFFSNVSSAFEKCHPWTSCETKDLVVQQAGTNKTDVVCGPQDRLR
T1 sequence (P25942 21-277): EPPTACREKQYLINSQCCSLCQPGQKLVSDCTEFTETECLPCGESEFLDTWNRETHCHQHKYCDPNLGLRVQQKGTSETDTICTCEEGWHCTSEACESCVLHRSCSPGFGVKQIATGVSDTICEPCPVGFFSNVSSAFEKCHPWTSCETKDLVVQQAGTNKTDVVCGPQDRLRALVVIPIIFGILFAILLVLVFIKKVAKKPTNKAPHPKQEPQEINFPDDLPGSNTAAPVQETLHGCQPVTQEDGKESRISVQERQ

| Binder | EC50 of CD80 up-regulation on monocyte-derived dendritic cells (FACS) [1] [µg/mL] | EC50 of CD86 up-regulation on monocyte-derived dendritic cells (FACS) [1] [µg/mL] | EC50 of MHC II up-regulation on monocyte-derived dendritic cells (FACS) [1] [µg/mL] | Maximum Fold Increase of CD80 on dendritic cells [1] [fold] | Maximum Fold Increase of CD86 on dendritic cells [1] [fold] | Maximum Fold Increase of MHC II on dendritic cells [1] [fold] | fold improvement of affinity versus B44 [2] [fold] | Kd [3] [nM] | koff [3] [s⁻¹] | kon [3] [M⁻¹ s⁻¹] | Allo DC/T IFN-γ EC50 [4] [µg/mL] | Allo DC/T IFN-γ Max [4] [pg/mL] | Activation of B cells, EC50 (proliferation of CD19+ B cells, Cell titer-Glo) [5] [µg/mL] | fold increase in potency (binding to RAMOS cells) versus B44 [6] [fold] | Fold change in potency versus B44 antibody (rescue of huCD40/WEHI-231 cells from apoptosis and growth arrest) [7] [fold] | EC50 [8] [µg/mL] | Kd [9] [nM] | koff [9] [s⁻¹] | kon [9] [M⁻¹ s⁻¹] |
| --- | --- | --- | --- | --- | --- | --- | --- | --- | --- | --- | --- | --- | --- | --- | --- | --- | --- | --- | --- |
| B1 | 0.17 | 0.13 | 0.14 | 599 | 149 | 851 | ~100 | 0.02 | 0.00022 | 1.1e+07 | 0.04 | 8.9 | 0.16 | ~100 | 46 | 0.007 | 0.01 | 7.6e-05 | 7.3e+06 |
| B2 | 0.25 | 0.37 | 0.51 | 584 | 132 | 811 | – | 0.93 | 0.0055 | 6e+06 | 0.2 | 8.7 | 0.204 | – | – | 0.38 | 1.7 | 0.0045 | 2.7e+06 |
| B3 | 0.14 | 0.14 | 0.22 | 641 | 195 | 481 | ~100 | – | – | – | 0.03 | 9.5 | 0.46 | ~100 | – | 0.0044 | 0.016 | 0.00013 | 8.5e+06 |
| B4 | – | – | – | – | – | – | ~100 | 0.022 | 0.00025 | 1.1e+07 | 0.08 | 9.5 | 0.29 | ~100 | 19 | 0.0062 | 0.011 | 9.6e-05 | 8.5e+06 |
| B5 | – | – | – | – | – | – | ~100 | – | – | – | – | – | 0.21 | – | – | – | – | – | – |
| B6 | – | – | – | – | – | – | ~100 | – | – | – | 0.15 | 9 | 0.4 | ~100 | – | 0.0058 | – | – | – |
| B7 | – | – | – | – | – | – | ~100 | 0.033 | 0.00032 | 9.7e+06 | 0.03 | 8.5 | 0.48 | ~100 | 38 | 0.0049 | 0.014 | 0.00012 | 8.5e+06 |
| B8 | 0.031 | 0.11 | 0.04 | 609 | 164 | 395 | ~100 | – | – | – | 0.12 | 9 | 0.288 | ~100 | 52 | 0.0061 | – | – | – |
